Assay results from paper PMC7647061, “Expression, purification and characterization of α-synuclein fibrillar specific scFv from inclusion bodies” (PLoS ONE, 2020).

Molecular target: full-length α-syn140 fibrils (Homo sapiens (assumed), UniProt P37840)
Assay: far-Western, overlay or dot blot; dot blot: antigen (monomeric or fibrillar) spotted on nitrocellulose in 5 μl, air-dried, blocked in 5% skimmed milk in PBST; scFv-F 5 μg/mL overnight at 4°C; detected by anti-His and HRP secondary antibody
Details: both partners purified

B1: single-chain variable fragment (scFv-F) antibody (scFv, V domains shown)
VH: DVQLVESGGGLVQPGGSRKLSCAASGFTFSSFGMHWVRQAPEKGLEWVAYISSGSSTIYYADTVKGRFTISRDNPKNTLFLQMTSLRSEDTAMYYCARGNNPGTGYYYAMDYWGQGTSVTVSS
VL: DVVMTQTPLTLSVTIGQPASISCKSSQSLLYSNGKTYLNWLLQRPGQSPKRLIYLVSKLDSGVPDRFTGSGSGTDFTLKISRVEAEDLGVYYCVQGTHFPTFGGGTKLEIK
notes: VL of mouse monoclonal antibody Syn-F2; (Gly4Ser)3 linker, written out from the printed formula; VH of mouse monoclonal antibody Syn-F2; Order VL-(Gly4Ser)3-VH-6xHis; Final construct is in pET28a; the vector may add residues at the N-terminus (the model's residue numbers Tyr215 and Thr269 hint at a chain longer than VL-linker-VH alone); not shown: His6, C-terminal, kept
B1: binds.
